One block for each sequence: values may come before it.
Tests used:
HLA-A*69:01 [1] = experiment: IEDB peptide-MHC binding, purified MHC/direct/fluorescence; filed as Kd, often an IC50 or EC50 that approximates it; ≥ and ≤ were set here for values at or beyond the usual limits of such assays
HLA-C*15:02 = experiment: as above
HLA-A*02:01 [2] = experiment: IEDB peptide-MHC binding, purified MHC/competitive/fluorescence; filed as Kd, often an IC50 or EC50 that approximates it; ≥ and ≤ were set here for values at or beyond the usual limits of such assays
HLA-A*26:01 [3] = experiment: as above
HLA-A*69:01 [4] = experiment: as above
HLA-B*15:01 [5] = experiment: as above
HLA-B*15:17 = experiment: as above
HLA-B*18:01 [6] = experiment: as above
HLA-B*27:03 = experiment: as above
HLA-B*39:01 [7] = experiment: as above
HLA-B*46:01 [8] = experiment: as above
HLA-B*51:01 = experiment: as above
HLA-B*57:01 [9] = experiment: as above
HLA-A*01:01 = experiment: IEDB peptide-MHC binding, purified MHC/direct/fluorescence; filed as Kd, often an IC50 or EC50 that approximates it; ≥ and ≤ were set here for values at or beyond the usual limits of such assays
HLA-A*02:01 [10] = experiment: as above
HLA-A*03:01 = experiment: as above
HLA-A*11:01 = experiment: as above
HLA-A*31:01 = experiment: as above
HLA-B*18:01 [11] = experiment: as above
HLA-B*27:05 = experiment: as above
HLA-B*40:01 = experiment: as above
HLA-B*46:01 [12] = experiment: as above
HLA-B*48:01 = experiment: as above
HLA-B*57:01 [13] = experiment: as above
HLA-B*58:01 = experiment: as above
HLA-B*39:01 [14] = experiment: as above; settings: source organism: Camelpox virus M-96
HLA-A*02:03 = experiment: as above
HLA-A*02:12 = experiment: as above
HLA-A*02:16 = experiment: as above
HLA-A*02:19 = experiment: as above
HLA-A*24:03 = experiment: as above; settings: source organism: Zaire ebolavirus
HLA-A*29:02 = experiment: as above
HLA-A*68:02 = experiment: as above
HLA-B*15:01 [15] = experiment: as above
HLA-B*44:02 = experiment: as above; settings: source organism: Yellow fever virus
HLA-B*15:42 = experiment: IEDB peptide-MHC binding, purified MHC/competitive/fluorescence; filed as Kd, often an IC50 or EC50 that approximates it; ≥ and ≤ were set here for values at or beyond the usual limits of such assays
HLA-B*45:06 = experiment: as above
HLA-B*83:01 = experiment: as above
HLA-A*24:02 = experiment: IEDB peptide-MHC binding, purified MHC/competitive/fluorescence; ≥ and ≤ were set here for values at or beyond the usual limits of such assays; settings: source organism: Sudan ebolavirus
HLA-A*02:11 = experiment: IEDB peptide-MHC binding, purified MHC/direct/fluorescence; filed as Kd, often an IC50 or EC50 that approximates it; ≥ and ≤ were set here for values at or beyond the usual limits of such assays
HLA-A*26:01 [16] = experiment: as above; settings: source organism: Orthohantavirus moroense
[17] = source organism: West Nile virus
[18] = source organism: Camelpox virus M-96
[19] = source organism: Zaire ebolavirus
[20] = source organism: Yellow fever virus
[21] = source organism: human gammaherpesvirus 4
[22] = source organism: Limestone Canyon virus
[23] = source organism: Orthohantavirus puumalaense
[24] = source organism: Orthohantavirus hantanense
[25] = source organism: Mycobacterium tuberculosis C

Sequence: RLARAIIEL
Kd (HLA-A*69:01 [1]; [17]): 3.79 µM | Kd (HLA-C*15:02; [17]): 2.42 µM

Kd (HLA-A*02:01 [2]; source organism: Homo sapiens): ≥ 20 µM | Kd (HLA-A*26:01 [3]; source organism: Homo sapiens): ≥ 20 µM | Kd (HLA-A*69:01 [4]; source organism: Homo sapiens): ≥ 20 µM | Kd (HLA-B*15:01 [5]; source organism: Homo sapiens): ≥ 20 µM | Kd (HLA-B*15:17; source organism: Homo sapiens): ≥ 20 µM | Kd (HLA-B*18:01 [6]; source organism: Homo sapiens): ≥ 20 µM | Kd (HLA-B*27:03; source organism: Homo sapiens): ≥ 20 µM | Kd (HLA-B*39:01 [7]; source organism: Homo sapiens): ≥ 20 µM | Kd (HLA-B*46:01 [8]; source organism: Homo sapiens): ≥ 20 µM | Kd (HLA-B*51:01; source organism: Homo sapiens): ≥ 20 µM | Kd (HLA-B*57:01 [9]; source organism: Homo sapiens): ≥ 20 µM
Sequence: VTENKKIQY

Sequence: NSNINVINY
Kd (HLA-A*01:01; [18]): 5.44 µM | Kd (HLA-A*02:01 [10]; [18]): ≥ 20 µM | Kd (HLA-A*03:01; [18]): ≥ 20 µM | Kd (HLA-A*11:01; [18]): ≥ 20 µM | Kd (HLA-A*31:01; [18]): ≥ 20 µM | Kd (HLA-A*69:01 [1]; [18]): ≥ 20 µM | Kd (HLA-B*18:01 [11]; [18]): ≥ 20 µM | Kd (HLA-B*27:05; [18]): ≥ 20 µM | Kd (HLA-B*40:01; [18]): ≥ 20 µM | Kd (HLA-B*46:01 [12]; [18]): ≥ 20 µM | Kd (HLA-B*48:01; [18]): ≥ 20 µM | Kd (HLA-B*57:01 [13]; [18]): ≥ 20 µM | Kd (HLA-B*58:01; [18]): ≥ 20 µM | Kd (HLA-B*15:17; source organism: Vaccinia virus WR): ≥ 20 µM

Sequence: YHDDDNTTT
Kd (HLA-B*39:01 [14]): 0.343 µM

Sequence: KRLQILGYL
Kd (HLA-A*02:03; [19]): ≥ 20 µM | Kd (HLA-A*02:12; [19]): ≥ 20 µM | Kd (HLA-A*02:16; [19]): ≥ 20 µM | Kd (HLA-A*02:19; [19]): ≥ 20 µM | Kd (HLA-A*03:01; [19]): ≥ 20 µM | Kd (HLA-A*24:03): ≥ 20 µM | Kd (HLA-A*29:02; [19]): ≥ 20 µM | Kd (HLA-A*68:02; [19]): ≥ 20 µM | Kd (HLA-B*27:05; source organism: Sudan ebolavirus - Maleo (1979)): 0.204 µM | Kd (HLA-A*02:01 [2]; [19]): ≥ 20 µM | Kd (HLA-A*26:01 [3]; [19]): ≥ 20 µM | Kd (HLA-A*69:01 [4]; [19]): ≥ 20 µM | Kd (HLA-B*15:01 [5]; [19]): ≥ 20 µM | Kd (HLA-B*15:17; [19]): ≥ 20 µM | Kd (HLA-B*18:01 [6]; [19]): ≥ 20 µM | Kd (HLA-B*39:01 [7]; [19]): ≥ 20 µM | Kd (HLA-B*46:01 [8]; [19]): ≥ 20 µM | Kd (HLA-B*51:01; [19]): ≥ 20 µM | Kd (HLA-B*57:01 [9]; [19]): ≥ 20 µM

Sequence: SCRVKLSAL
Kd (HLA-A*01:01; [20]): ≥ 20 µM | Kd (HLA-A*02:01 [10]; [20]): ≥ 20 µM | Kd (HLA-A*03:01; [20]): ≥ 20 µM | Kd (HLA-A*11:01; [20]): ≥ 20 µM | Kd (HLA-A*29:02; [20]): ≥ 20 µM | Kd (HLA-A*31:01; [20]): ≥ 20 µM | Kd (HLA-A*69:01 [1]; [20]): ≥ 20 µM | Kd (HLA-B*15:01 [15]; [20]): ≥ 20 µM | Kd (HLA-B*18:01 [11]; [20]): ≥ 20 µM | Kd (HLA-B*27:05; [20]): ≥ 20 µM | Kd (HLA-B*40:01; [20]): ≥ 20 µM | Kd (HLA-B*44:02): ≥ 20 µM | Kd (HLA-B*46:01 [12]; [20]): ≥ 20 µM | Kd (HLA-B*48:01; [20]): ≥ 20 µM | Kd (HLA-B*57:01 [13]; [20]): ≥ 20 µM | Kd (HLA-B*58:01; [20]): ≥ 20 µM

Kd (HLA-A*02:01 [10]; source organism: Homo sapiens): 0.0002 µM | Kd (HLA-A*26:01 [3]; source organism: Homo sapiens): ≥ 20 µM | Kd (HLA-A*69:01 [4]; source organism: Homo sapiens): ≥ 20 µM | Kd (HLA-B*15:17; source organism: Homo sapiens): ≥ 20 µM | Kd (HLA-B*27:03; source organism: Homo sapiens): ≥ 20 µM | Kd (HLA-B*46:01 [8]; source organism: Homo sapiens): ≥ 20 µM | Kd (HLA-B*51:01; source organism: Homo sapiens): ≥ 20 µM | Kd (HLA-B*57:01 [9]; source organism: Homo sapiens): ≥ 20 µM
Sequence: FQWHEAMFL

Kd (HLA-C*15:02; source organism: Histophilus somni 129PT): 0.266 µM
Sequence: KSLQTTRRF

Sequence: TEMYIMYAM
Kd (HLA-B*15:42; [21]): ≥ 5 µM | Kd (HLA-B*45:06; [21]): ≥ 5 µM | Kd (HLA-B*83:01; [21]): ≥ 5 µM

Sequence: KCNPNLHYW
IC50 (HLA-A*24:02): 0.376 µM | Kd (HLA-A*02:03; [19]): ≥ 20 µM | Kd (HLA-A*02:11; [19]): ≥ 20 µM | Kd (HLA-A*02:12; [19]): ≥ 20 µM | Kd (HLA-A*02:16; [19]): ≥ 20 µM | Kd (HLA-A*02:19; [19]): ≥ 20 µM | Kd (HLA-A*03:01; [19]): ≥ 20 µM | Kd (HLA-A*29:02; [19]): ≥ 20 µM | Kd (HLA-A*68:02; [19]): ≥ 20 µM | Kd (HLA-B*58:01; source organism: Ebola virus - Eckron (Zaire, 1976)): 2.6 µM | Kd (HLA-A*02:01 [2]; [19]): ≥ 20 µM | Kd (HLA-A*26:01 [3]; [19]): ≥ 20 µM | Kd (HLA-A*69:01 [4]; [19]): ≥ 20 µM | Kd (HLA-B*18:01 [6]; [19]): ≥ 20 µM | Kd (HLA-B*27:03; [19]): ≥ 20 µM | Kd (HLA-B*39:01 [7]; [19]): ≥ 20 µM | Kd (HLA-B*46:01 [8]; [19]): ≥ 20 µM

Sequence: ATKDSFQSF
Kd (HLA-A*02:03; [22]): ≥ 20 µM | Kd (HLA-A*02:11; [22]): ≥ 20 µM | Kd (HLA-A*02:12; [22]): ≥ 20 µM | Kd (HLA-A*02:16; [22]): ≥ 20 µM | Kd (HLA-A*02:19; [22]): ≥ 20 µM | Kd (HLA-A*03:01; [22]): ≥ 20 µM | Kd (HLA-A*26:01 [16]): 0.556 µM | Kd (HLA-A*68:02; [22]): ≥ 20 µM | Kd (HLA-B*15:01 [15]; source organism: Orthohantavirus moroense): 0.372 µM | Kd (HLA-A*02:01 [2]; [23]): ≥ 20 µM | Kd (HLA-A*69:01 [4]; [23]): ≥ 20 µM | Kd (HLA-B*18:01 [6]; [23]): ≥ 20 µM | Kd (HLA-B*27:03; [23]): ≥ 20 µM | Kd (HLA-B*39:01 [7]; [23]): ≥ 20 µM

Sequence: ISNQEPLKL
Kd (HLA-A*11:01; [24]): 18.6 µM | Kd (HLA-B*58:01; [24]): 0.105 µM | Kd (HLA-C*15:02; source organism: Orthohantavirus dobravaense): 0.009 µM

Sequence: RPMLARLTV
Kd (HLA-B*15:42; [25]): ≥ 5 µM | Kd (HLA-B*45:06; [25]): ≥ 5 µM | Kd (HLA-B*83:01; [25]): 0.185 µM
